Results published in patent publication US20250026814A1.
Several values for one entry are separate records, joined by “and”; a condition that tells them apart may be missing. Equal values may be shown once.

Biological target: spike BA.1 antigens
Assay: ELISA (AUC)

B1: S626-161 (antibody, V domains shown)
VH: QLQLQESGPGLVKPSETLSLTCTVSGGSISSNNYYWGWIRQPPGKGLEWIGSIYYSGSTYYNPSLKSRVTMSVDTSKNQFSLKLSSVTAADTAVYHCARQGPNYYDRSGYYYVGPFDIWGQGTMVTVSS
VL: QSVLTQPPSVSAAPGQKVTISCSGSSSNIGNNSVSWYQHLPGTAPKLLIYENNERPSGIPDRFSGSKSGTSATLGITGLQTGDEADYYCETWDRSLSASFGTGTKVTVL
With B1 the fold reduced binding was 1.7 fold and 3.9 fold.
